Among the data in the supplement of paper PMC10567573 are protein stability index values, retold here.

± gives the standard deviation.

The series in a line: protein stability index of a GFP-peptide fusion (GPS, HEK-293T) (PSI 1-6); higher = more stable.
[1] abbreviates: treatment: DMSO, c terminus: a fixed tail appended.
Where [2] appears, read: treatment: MLN4924 1 uM, 8 h, c terminus: a fixed tail appended.
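Also: 24-mer peptide tiles fused after GFP, lentivirally expressed, FACS-sorted into six equal bins by GFP/DsRed ratio, decoded by Illumina sequencing, PSI is the read-weighted mean bin number.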

For the sequence KFGVVQTSVEECSQKGCLALSLLE [CLCN6], the protein stability index is, setting by setting: under setting [1], 2.81 ± 0.071; under setting [2], 2.99 ± 0.22. On the same counts, the results for KGGYKEFFPQHPNFCEPQDYRPMN [CDC25B] are 3.52 ± 0.18 and 3.37 ± 0.2. Turning to KGKLMVCYETLPRGQCLLYNWEEE [SPAG8], the protein stability index runs as follows: under setting [1], 2.55 ± 0.32; under setting [2], 2.7 ± 0.34. On the same counts, the results for KGSLPQPPITEVESQVFSEKLATD [ZNF232] are 5.44 ± 0.17 and 5.24 ± 0.24. The corresponding values for KHHNLEGLRKRIATLFFHYIKTPL [IQUB] are 3.05 ± 0.27 and 2.66 ± 0.59. As for KIIREIDFYREDEDEEEEEGGEGE [TRIM55], the protein stability index by setting is: under setting [1], 5.18 ± 0.26; under setting [2], 5.06 ± 0.24. Take KIKKSPLTICYPEYAGSNTYEEAA [GNAI1]: the protein stability index came to 3.34 ± 0.26 under setting [1] and 3.91 ± 0.28 under setting [2]. On the same counts, the results for KKHEFLTSVLDALSTDMVHAASDP [SMOC2] are 3.33 ± 0.24 and 3.46 ± 0.18. On the same counts, the results for KLENARLSSEMNTSTVNSAREELM [LMNB1] are 4.59 ± 0.19 and 4.71 ± 0.11.

For KLRQMRVEKFIYENHPDVFSDSSM [MYOZ1], the protein stability index reads like this: under setting [1], 2.43 ± 0.17; under setting [2], 2.64 ± 0.41. On the same counts, the results for KNHSTVTVEEAKAEKETELSLQKE [TRIM29] are 5.57 ± 0.24 and 5.58 ± 0.23. On to KNRPAMNYDKLSRSIRQYYKKGII [SPDEF], for which the protein stability index runs as follows: under setting [1], 2.46 ± 0.3; under setting [2], 2.42 ± 0.48. The corresponding values for KPYAVMVFQTEQKNLFRLEMDMVV [N4BP2L1] are 2.7 ± 0.1 and 2.96 ± 0.88.

With KQIYNLIHLDPRTREGFTLLHLAV [FEM1B], the protein stability index by setting is: under setting [1], 2.66 ± 0.52; under setting [2], 2.67 ± 0.61. The corresponding values for KQRPTKLKSLIRLVKHWYQNCKKK [OAS1] are 3.44 ± 0.45 and 3.08 ± 0.42. As to KREMILKRKEEEALKDSLRPKLSE [VDR], the protein stability index is 4.82 ± 0.28 under setting [1] and 5.24 ± 0.24 under setting [2]. Regarding KRLYDKAAKMYHQLKKCETRKLSP [SMG5], the protein stability index is 2.28 ± 0.18 under setting [1] and 2.38 ± 0.39 under setting [2].

KSIYYITGESKEQVANSAFVERVR [HSP90AB1]: the protein stability index under setting [1] turned out to be 3.11 ± 0.32.

Sequence KSLLPHLKTGNSSPGIGAVYLANQ [RTP4] showed a protein stability index under setting [1] of 2.71 ± 0.16 and a protein stability index under setting [2] of 2.77 ± 0.2. On the same counts, the results for KSPIAPCSLDKRVILIFHCEFSSE [CDC25B] are 2.73 ± 0.5 and 2.8 ± 0.47. On the same counts, the results for KSVRLARELESREAELRRRDTFYK [CHCHD6] are 4.23 ± 0.26 and 4.36 ± 0.29.

For KTCNPPDAGPMVVHCSAGVGRTGC [PTPRD], the protein stability index came out at 3.5 ± 0.32 under setting [1] and 3.5 ± 0.34 under setting [2]. The corresponding values for KTHSSPALSQGHVTGSKTTKDATG [PSD2] are 5.37 ± 0.06 and 5.46 ± 0.17.

For KTVCGYYTSAGTYGLDSVKKKCLE [GMCL1], the protein stability index was 3.16 ± 0.3 under setting [1] and 2.97 ± 0.49 under setting [2]. On the same counts, the results for KVCLLGDTGVGKSSIVWRFVEDSF [RAB22A] are 2.28 ± 0.22 and 2.48 ± 0.68.

For the sequence KVEEVSLPEQVDIIISEPMGYMLF [CARM1], the protein stability index runs as follows: under setting [1], 2.88 ± 0.49; under setting [2], 2.54 ± 0.35.

Sequence KVFIPSLFLSHVLALGLGIYIGKR [BNIP3L] registered a protein stability index under setting [1] of 2.34 ± 0.89 and a protein stability index under setting [2] of 2.3 ± 0.6. On the same counts, the results for KVKTMEVTSVSIELEKNFSNFPRQ [TRIM39] are 3.15 ± 0.23 and 3.42 ± 0.36. Consider KVKVPQKTAGKENHFDMHRVGKWH [ZNF75A], for which the protein stability index turned out to be 2.87 ± 0.45 under setting [1] and 3.43 ± 0.51 under setting [2]. On the same counts, the results for KVLLCHGELRSKSGHKLYIFLFQD [NET1] are 2.62 ± 0.55 and 2.57 ± 0.57.

Take KVTGVEYHNAGTQTVPKRIPERLS [IQUB]: the protein stability index is, setting by setting: under setting [1], 4.22 ± 0.22; under setting [2], 4.23 ± 0.32. The corresponding values for KVYYEVIQLIKTNKKHIHSRSTLE [SMG5] are 2.33 ± 0.93 and 2.26 ± 0.25. In turn, KYGDIPRGIFVVRGENVVLLGEID [LSM1] came in with a protein stability index under setting [1] of 2.27 ± 0.093 and a protein stability index under setting [2] of 2.4 ± 0.32. On the same counts, the results for KYRNPSLKLMVNVCGHTLCESCVD [MNAT1] are 2.53 ± 0.34 and 2.83 ± 0.31.

Take KYSVYIYVYFHTKLTSQNSKRVS [R3HDM1]: the protein stability index reads like this: (treatment: DMSO, c terminus: native) 2.55 ± 0.71; (treatment: MLN4924 1 uM, 8 h, c terminus: native) 2.24 ± 0.15. Take LALDREPPPHLLPEKHQVPEKLIW [WDR88]: the protein stability index is, setting by setting: under setting [1], 3.31 ± 0.32; under setting [2], 3.17 ± 0.3. On the same counts, the results for LALRTLPGPSWVRGSGPSVLSRLQ [ALKBH7] are 2.62 ± 0.14 and 2.48 ± 0.3. On the same counts, the results for LAMNYKHGDPIPKVEFTEEEIKTW [TPH1] are 4.21 ± 0.33 and 4.35 ± 0.24. The corresponding values for LARGPLNQTALHLAAAHGHSEVVE [RIPK4] are 4.36 ± 0.18 and 4.55 ± 0.19. With LASARIIEQDAVVPSEWLSSVYKQ [GMCL1], the protein stability index stood at 3.31 ± 0.17 under setting [1] and 3.19 ± 0.24 under setting [2]. The corresponding values for LASLSFIDTVYSTAFAPKMIVDLL [OR4A15] are 2.66 ± 0.32 and 3.05 ± 0.34. On the same counts, the results for LAVYHRLWDRAYVRLKPALQRLDF [RETREG3] are 2.31 ± 0.38 and 2.56 ± 0.4.

For the sequence LCQVAQEALASAGASCCGQPLASH [VENTX], the protein stability index reads like this: under setting [1], 3.38 ± 0.27; under setting [2], 3.42 ± 0.15. Turning to LDAVEAQIGCKLPDDYRCSYRIHN [FBXO3], the protein stability index turned out to be 2.98 ± 0.39 under setting [1] and 3.15 ± 0.33 under setting [2]. On the same counts, the results for LDQLDESLRDKVLQLQKGSDTEAQ [INTS3] are 5.46 ± 0.12 and 5.31 ± 0.21. LDRVRGGRQKYKRRPEVDPLPFPG [ESRRA] gave a protein stability index under setting [1] of 3.68 ± 0.36 and a protein stability index under setting [2] of 3.92 ± 0.41. Turning to LEAGLPLQVRGYPEEKKEEEGSAN [CHGA], the protein stability index runs as follows: under setting [1], 5.61 ± 0.35; under setting [2], 5.79 ± 0.15. The corresponding values for LEALHLEALCEEDLLLWIQKHTEV [DENND6A] are 2.68 ± 0.17 and 2.84 ± 0.67. On the same counts, the results for LEFFYGIATATEIAYYSYIYSVVD [SLC19A2] are 3.5 ± 0.48 and 3.27 ± 0.46. LEFRSFWELIGEAAKSVKLERPVR [S100A14]: the protein stability index is, setting by setting: under setting [1], 1.87 ± 0.2; under setting [2], 2.33 ± 0.35. The corresponding values for LELIEPLIKFQVGLKKLNLHEEEH [VDR] are 2.73 ± 0.21 and 2.9 ± 0.42. Consider LELQRQREARKRALARKQAQEQLR [RSPH3], for which the protein stability index under setting [1] was determined as 3.95 ± 0.31 and the protein stability index under setting [2] worked out at 4.06 ± 0.49. The corresponding values for LESTLAETEARYSSQLAQMQCLIS [KRT36] are 3.08 ± 0.17 and 3.18 ± 0.32.
